We go through 4 molecules from paper PMC10250827.

Test [1] deals with Heat shock protein 90 (Hsp90), protein immobilised on the FEB chip (UniProt P07900). Briefly: field effect biosensing.
Test [2] shares this target. Briefly: field effect biosensing. The source holds these as a separate data set.

*1 amine or outer side, *2 acyl side, *3 side chain or, on linkers, in order; H or OH if unused. Glutaryl = O=C(CCCC(=O)[*:2])[*:1]; Suc = O=C(CCC(=O)[*:2])[*:1]

As for “Cell division cycle 37 (Cdc37), analyte protein in FEB (from UniProt Q16543 1-378) (natural protein)”, the KD in the presence of CHP-028 (competitive binding) in test [1] was 2.78 µM.

B1: CHP-027, pre-cyclic peptidomimetic CO-(CH2)3-CO2H KTGDEK-K-GG-…-NH2 (peptide)
peptide: Glutaryl-KTGDEKKGGYGRKKRRQRRR-NH2
SMILES: C[C@@H](O)[C@H](NC(=O)[C@H](CCCCN)NC(=O)CCCC(=O)O)C(=O)NCC(=O)N[C@@H](CC(=O)O)C(=O)N[C@@H](CCC(=O)O)C(=O)N[C@@H](CCCCN)C(=O)N[C@@H](CCCCN)C(=O)NCC(=O)NCC(=O)N[C@@H](Cc1ccc(O)cc1)C(=O)NCC(=O)N[C@@H](CCCNC(=N)N)C(=O)N[C@@H](CCCCN)C(=O)N[C@@H](CCCCN)C(=O)N[C@@H](CCCNC(=N)N)C(=O)N[C@@H](CCCNC(=N)N)C(=O)N[C@@H](CCC(N)=O)C(=O)N[C@@H](CCCNC(=N)N)C(=O)N[C@@H](CCCNC(=N)N)C(=O)N[C@@H](CCCNC(=N)N)C(N)=O
One may read the Kd as the concentration at which binding is half-saturated. Low values mean tighter binding, high ones weaker binding. Regarding B1, the Kd in test [2] is 30 µM.

B2: CHP-028, pre-cyclic peptidomimetic CO-(CH2)2-CO2H KTGDEK-K-GG-…-NH2 (peptide)
peptide: Suc-KTGDEKKGGYGRKKRRQRRR-NH2
SMILES: C[C@@H](O)[C@H](NC(=O)[C@H](CCCCN)NC(=O)CCC(=O)O)C(=O)NCC(=O)N[C@@H](CC(=O)O)C(=O)N[C@@H](CCC(=O)O)C(=O)N[C@@H](CCCCN)C(=O)N[C@@H](CCCCN)C(=O)NCC(=O)NCC(=O)N[C@@H](Cc1ccc(O)cc1)C(=O)NCC(=O)N[C@@H](CCCNC(=N)N)C(=O)N[C@@H](CCCCN)C(=O)N[C@@H](CCCCN)C(=O)N[C@@H](CCCNC(=N)N)C(=O)N[C@@H](CCCNC(=N)N)C(=O)N[C@@H](CCC(N)=O)C(=O)N[C@@H](CCCNC(=N)N)C(=O)N[C@@H](CCCNC(=N)N)C(=O)N[C@@H](CCCNC(=N)N)C(N)=O
Turning to B2, the Kd in test [2] turned out to be 16.4 µM.

In turn, Ac-KTGDEKKGGYGRKKRRQRRR-NH2 [CHP-026, linear peptide CH3-CO-KTGDEK-K-GG-…-NH2] yielded an equilibrium dissociation constant (Kd) in test [2] of 342 µM.
